The data set concerns MS2 coat protein. As to the kind of experiment: apparent KD of MS2 coat protein; higher = weaker reporter binding. The following applies: Eterna round: R107. Put shortly: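 The buffer was 100 mM Tris-HCl pH 7.5 with 80 mM KCl and 4 mM MgCl2, used without or with constant ligand. In it, RNA switches transcribed on-chip from Illumina sequencing clusters were titrated with SNAP-549-labelled MS2 coat protein in twofold steps from 0.7 or 1.5 nM to 3 µM. Apparent KD for each design is the median of its normalised cluster binding-curve fits.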

Where [1] appears, read: input ligand: theophylline 20 uM.
Where [2] appears, read: input ligand: theophylline 2 mM.
Where [3] appears, read: input ligand: tryptophan 2.4 mM.

Results on 18 sequences are retold here after the supplement of paper PMC9170038.

As to “CUCCCUUCGGCGGCCGCCACUAACAGUUUAAUGGACUUUCGGGUCCACAUGAGGAUCACCCAUGUUAGGACCGGGCCCUUGCUCU [theeternabot_exclusion_MS2_Trp_B_39]”, the “apparent KD of MS2 coat protein” value was found to be 8.8 nM (input ligand: arginine 13.2 mM); 9.2 nM (input ligand: none); 17.5 nM under setting [1]; 10.6 nM under setting [2]; 10.9 nM under setting [3].
On to “CUCUCAUGAACAUGAGGAUCACCCAUGUAACGAGGACCGGUACGGCCGCCACUCGGUCGUGGAAACUAAUCGAGUGAGGUGGGAG [Tryp A Ex t5c]”, for which the “apparent KD of MS2 coat protein” value (input ligand: arginine 13.2 mM) was 26.8 nM; the “apparent KD of MS2 coat protein” value (input ligand: none) was 44.4 nM; the “apparent KD of MS2 coat protein” value under setting [1] was 85.7 nM; the “apparent KD of MS2 coat protein” value under setting [2] is 75.3 nM; the “apparent KD of MS2 coat protein” value under setting [3] stood at 254 nM.
Take “CUCUGAGUGAGGAAUCACUCAGAGGCGGAUACCAGCGAGGUCCAUCGCCCUUGGCAGCCGAACAUGAGGAUCACCCAUGUCGGUA [#1 Same State - Theophylline A Attempt #23 (HarryS)]”: the “apparent KD of MS2 coat protein” value is 9.44 nM (input ligand: arginine 13.2 mM); 9.45 nM (input ligand: none); 12.1 nM under setting [1]; 13.5 nM under setting [2]; 9.3 nM under setting [3].
For the sequence “CUGUACAUCUCGGCCGCCACUGACAUGAGGAUCACCCAUGUAGUACCUGAGAUAGACAUAUCUUACAGGACCGGGAGGUGUGCAG [SSTryp B #31]”, the “apparent KD of MS2 coat protein” value runs as follows: (input ligand: arginine 13.2 mM) 12.2 nM; (input ligand: none) 10.2 nM; under setting [1], 13.5 nM; under setting [2], 9.35 nM; under setting [3], 10.6 nM.
Take “CUUCAGGGUGCGGCCGCCACUUAUUAGGUGCUUGCGACGCCAGCACAUGAGGAUCACCCAUGUUCAAGGACCGGGCACCACCUUU [theeternabot_sameState_MS2_Trp_B_21]”: the “apparent KD of MS2 coat protein” value (input ligand: arginine 13.2 mM) was found to be 8.14 nM, the “apparent KD of MS2 coat protein” value under setting [1] turned out to be 20 nM and the “apparent KD of MS2 coat protein” value under setting [2] turned out to be 15.1 nM.
Regarding “GAACAUGAGGAUCACCCAUGUAAAACAGAUACCAGUGAUAUAAUACACCCUUGGCAGCUGUAGCUGAAUAAUAAUUCCCUCAAGC [#19 SameState-TheophyllineA]”, the “apparent KD of MS2 coat protein” value is, setting by setting: (input ligand: arginine 13.2 mM) 17 nM; under setting [1], 21.8 nM; under setting [3], 16.9 nM.
Regarding “GAAGAGAGGAUACCGUUUGUAUACAACGAUACCAGUGGUAUGUAUCACCCUUGGCAGCGUGAGACAUGAGGAUCACCCAUGUGGC [theeternabot_exclusion_MS2_Theo_A_46]”, the “apparent KD of MS2 coat protein” value runs as follows: (input ligand: arginine 13.2 mM) 14.3 nM; under setting [1], 26.1 nM; under setting [3], 18.4 nM.
In the case of “GAAGGAGAACUCAUGACUCCUUCCCUGGAAGGAGCGAGCGAAAGCUCAGGUAGGUCGCCAGAAACAUGAGGAUCACCCAUGUAAU [(A)''-(M)'-(A)'-(Arg1)-(Arg2)-(M1)-(M2)_Design4]”, the “apparent KD of MS2 coat protein” value (input ligand: arginine 13.2 mM) was found to be 28.5 nM; the “apparent KD of MS2 coat protein” value (input ligand: none) was 37.4 nM; the “apparent KD of MS2 coat protein” value under setting [1] is 48 nM; the “apparent KD of MS2 coat protein” value under setting [2] is 43.3 nM; the “apparent KD of MS2 coat protein” value under setting [3] was 40.1 nM.
As for “GACAAUAAUUCAACAAUCAAAAUAGUGGGACGAGGACCGGUACGGCCGCCACUCGCUGAAGCACAUGAGGAUCACCCAUGUCUAA [theeternabot_exclusion_MS2_Trp_A_47]”, the “apparent KD of MS2 coat protein” value (input ligand: arginine 13.2 mM) stood at 14.8 nM, the “apparent KD of MS2 coat protein” value under setting [1] was 19.8 nM and the “apparent KD of MS2 coat protein” value under setting [2] worked out at 18.7 nM.
As for “GACAUGAGGAUCACCCAUGUACCGCGAGAAGGAGCGCGGAUAAACGCAGGUAGGUCGCUCGUGGGCUUACAUUCAAGUGUAAGCU [Usarat]”, the “apparent KD of MS2 coat protein” value came out at 49 nM (input ligand: arginine 13.2 mM); 106 nM (input ligand: none); 143 nM under setting [1]; 118 nM under setting [2]; 31.3 nM under setting [3].
Turning to “GAGCUGAUGUAGAAAUUUUAUUUCUGAGAUACCAGUACAGAAAUGUACCCUUGGCAGCUCAGUUUUACAUGAGGAUCACCCAUGU [Ex Theophylline A 15]”, the “apparent KD of MS2 coat protein” value is, setting by setting: (input ligand: arginine 13.2 mM) 14.8 nM; under setting [1], 15.6 nM; under setting [3], 13.1 nM.
“GAGCUGAUGUAGAGCCUUUAGUUCUGAGAUACCAGUACAGAAAUGUACCCUUGGCAGCUCAGCUUUACAUGAGGAUCACCCAUGU [Ex Theophylline A 17]”: the “apparent KD of MS2 coat protein” value was 20 nM (input ligand: arginine 13.2 mM), 27.7 nM under setting [1] and 23.5 nM under setting [3].
On to “GAGGAAACUCACAUGAGGAUCACCCAUGUACGAGGACCGGUACGGCCGCCACUCGAAACCAUGGGCGGUAGUACAUGGAAACAUG [Design 2 MOD]”, for which the “apparent KD of MS2 coat protein” value runs as follows: (input ligand: arginine 13.2 mM) 34 nM; under setting [1], 65.8 nM; under setting [2], 75.5 nM.
“GAGGGUGAGCCUCUGGUCCGUUUGACGGAUACCAGCGAGAGGUCUCGCCCUUGGCAGCCGACGACAUGAGGAUCACCCAUGUUAA [#09 Exclusion-TheophyllineA]”: the “apparent KD of MS2 coat protein” value (input ligand: arginine 13.2 mM) was found to be 17.3 nM; the “apparent KD of MS2 coat protein” value (input ligand: none) stood at 17.1 nM; the “apparent KD of MS2 coat protein” value under setting [1] was determined as 21.4 nM; the “apparent KD of MS2 coat protein” value under setting [2] worked out at 19.2 nM; the “apparent KD of MS2 coat protein” value under setting [3] amounted to 15.7 nM.
Turning to “GAUAUAUAGGCGGCCGCCACUGAUUUUCAUAUAUAUAUAACAUGAGGAUCACCCAUGUAGAUAUACAGGACCGGGCCUAUAUAUU [aaaB]”, the “apparent KD of MS2 coat protein” value runs as follows: (input ligand: arginine 13.2 mM) 15.5 nM; under setting [1], 16 nM; under setting [2], 16 nM.
On to “GAUCGACAAAACGUCUAGGAAAACUAGACGCGAGGACCGGUACGGCCGCCACUCGUCCUCACAUGAGGAUCACCCAUGUACGAUC [#SwitchBubble 2 #CuTurnoff]”, for which the “apparent KD of MS2 coat protein” value runs as follows: (input ligand: arginine 13.2 mM) 30.3 nM; under setting [1], 43.2 nM; under setting [2], 46.3 nM.
In the case of “GCACCAGGUACGGAUACCAGCUAUAGGUACAUGUCAGGACAUGAGGAUCACCCAUGUGGUAGCCCUUGGCAGCUGUACCUGGUGC [EThB NP+V+V2 #2]”, the “apparent KD of MS2 coat protein” value (input ligand: arginine 13.2 mM) came out at 18.5 nM, the “apparent KD of MS2 coat protein” value under setting [1] worked out at 26.3 nM and the “apparent KD of MS2 coat protein” value under setting [3] amounted to 19.1 nM.
In the case of “GCAUCCUAGUCGGCCGCCACUGCAAUUGUAGUACUGCUACAUGAACAUGAGGAUCACCCAUGUAGCAGGACCGGGACUAGGAUGC [(Trp1)-(TM)''-(TM)'-(Ms2)-(Trp2)_Design10]”, the “apparent KD of MS2 coat protein” value by setting is: (input ligand: arginine 13.2 mM) 44.4 nM; under setting [1], 78.5 nM; under setting [2], 68.5 nM.
